Source: patent publication CN112552406A (WUJIANG NOVOPROTEIN SCIENT INC, dated 2021)

T1: 人CD73 on SK-OV-3细胞 (人卵巢腺癌细胞) (human, UniProt P21589 27-549)
T1 construct: whole, on cells; CD73-positive human cell line; also called SK-OV-3细胞上CD73; 人CD73阳性细胞
T1 sequence (looked up): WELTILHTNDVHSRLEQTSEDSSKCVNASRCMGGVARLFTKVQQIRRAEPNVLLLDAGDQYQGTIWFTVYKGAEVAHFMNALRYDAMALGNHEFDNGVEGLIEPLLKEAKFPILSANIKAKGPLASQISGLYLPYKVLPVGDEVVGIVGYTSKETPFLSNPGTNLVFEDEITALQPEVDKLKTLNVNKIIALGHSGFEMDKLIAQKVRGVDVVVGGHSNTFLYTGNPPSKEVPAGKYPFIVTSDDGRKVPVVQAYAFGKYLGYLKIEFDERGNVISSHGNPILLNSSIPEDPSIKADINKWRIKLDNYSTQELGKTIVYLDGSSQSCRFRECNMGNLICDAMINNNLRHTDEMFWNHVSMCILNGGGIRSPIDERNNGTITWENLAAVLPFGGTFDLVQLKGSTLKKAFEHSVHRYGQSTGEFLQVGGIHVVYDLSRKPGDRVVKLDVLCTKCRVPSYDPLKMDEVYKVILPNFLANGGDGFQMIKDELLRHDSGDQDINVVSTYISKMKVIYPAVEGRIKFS

T2: 猴CD73全长 on CHOK1-cynoCD73细胞 (猴 (cyno), UniProt A0A2K5V5U7 27-549)
T2 construct: whole, on cells; also called 猴CD73阳性细胞
T2 sequence: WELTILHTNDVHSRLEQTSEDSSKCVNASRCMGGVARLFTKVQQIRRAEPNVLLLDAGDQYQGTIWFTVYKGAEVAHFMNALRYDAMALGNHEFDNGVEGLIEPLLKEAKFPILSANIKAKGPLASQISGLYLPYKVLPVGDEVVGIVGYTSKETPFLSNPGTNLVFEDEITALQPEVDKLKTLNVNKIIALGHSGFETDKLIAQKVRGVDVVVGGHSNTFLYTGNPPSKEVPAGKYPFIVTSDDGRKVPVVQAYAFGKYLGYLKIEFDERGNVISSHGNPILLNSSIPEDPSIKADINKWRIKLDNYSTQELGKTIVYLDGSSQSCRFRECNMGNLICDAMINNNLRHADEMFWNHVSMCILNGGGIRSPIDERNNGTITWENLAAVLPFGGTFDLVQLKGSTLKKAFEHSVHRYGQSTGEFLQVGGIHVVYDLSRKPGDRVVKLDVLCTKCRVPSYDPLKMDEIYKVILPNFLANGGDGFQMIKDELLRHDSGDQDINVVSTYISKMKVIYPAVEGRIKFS

T3: 重组猴CD73蛋白 (猴 (monkey; cyno per the cell line name), UniProt A0A2K5V5U7 27-547)
T3 sequence: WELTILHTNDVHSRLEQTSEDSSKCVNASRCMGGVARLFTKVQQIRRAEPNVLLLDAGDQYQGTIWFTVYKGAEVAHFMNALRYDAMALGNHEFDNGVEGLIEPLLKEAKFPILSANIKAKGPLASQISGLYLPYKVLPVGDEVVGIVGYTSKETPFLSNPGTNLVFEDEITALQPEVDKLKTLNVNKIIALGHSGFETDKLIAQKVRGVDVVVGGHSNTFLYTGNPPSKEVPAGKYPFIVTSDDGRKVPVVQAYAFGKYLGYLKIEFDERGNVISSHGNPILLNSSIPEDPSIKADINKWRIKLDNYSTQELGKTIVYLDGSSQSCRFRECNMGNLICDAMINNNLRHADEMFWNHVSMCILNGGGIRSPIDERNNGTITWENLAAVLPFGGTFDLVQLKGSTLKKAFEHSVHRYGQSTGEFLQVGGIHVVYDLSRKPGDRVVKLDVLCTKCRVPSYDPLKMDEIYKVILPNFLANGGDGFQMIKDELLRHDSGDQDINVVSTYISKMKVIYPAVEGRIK

T4: 重组人CD73蛋白 (human, UniProt P21589 27-547)
T4 construct: also called rhCD73; 重组hCD73蛋白
T4 sequence (looked up): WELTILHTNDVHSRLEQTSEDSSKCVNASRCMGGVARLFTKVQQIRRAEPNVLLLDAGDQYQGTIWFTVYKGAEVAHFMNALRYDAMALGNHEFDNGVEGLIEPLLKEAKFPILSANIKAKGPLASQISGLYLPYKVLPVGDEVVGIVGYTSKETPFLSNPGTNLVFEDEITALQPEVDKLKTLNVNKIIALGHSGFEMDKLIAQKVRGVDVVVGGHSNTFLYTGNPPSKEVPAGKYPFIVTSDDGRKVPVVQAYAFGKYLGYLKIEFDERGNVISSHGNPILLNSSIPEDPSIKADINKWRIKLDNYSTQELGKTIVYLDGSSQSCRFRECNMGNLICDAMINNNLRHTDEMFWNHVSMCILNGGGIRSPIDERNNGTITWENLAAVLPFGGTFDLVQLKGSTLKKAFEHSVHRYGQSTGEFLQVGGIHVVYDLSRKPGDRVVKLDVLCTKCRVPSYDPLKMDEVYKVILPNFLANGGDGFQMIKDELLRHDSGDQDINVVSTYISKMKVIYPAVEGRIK


What was measured:
[1] = biological target: T1, 人CD73 on SK-OV-3细胞 (人卵巢腺癌细胞); test: flow cytometry on SK-OV-3 cells, Anti-hFC-APC detection
[2] = biological target: T2, 猴CD73全长 on CHOK1-cynoCD73细胞; test: flow cytometry on CHOK1-cynoCD73 cells, Anti-hFC-APC detection
重组猴CD73蛋白 = biological target: T3, 重组猴CD73蛋白; test: ELISA, recombinant monkey CD73 coated at 3μg/ml
重组人CD73蛋白 = biological target: T4, 重组人CD73蛋白; test: Biacore (SPR), CQ137 immobilised, CD73 protein 2.5nM-40nM
[3] = biological target: T2, 猴CD73全长 on CHOK1-cynoCD73细胞; test: cell-based or functional assay
[4] = biological target: T1, 人CD73 on SK-OV-3细胞 (人卵巢腺癌细胞); test: cell-based or functional assay
[5] = biological target: T1, 人CD73 on SK-OV-3细胞 (人卵巢腺癌细胞); test: flow cytometry on SK-OV-3 cells

EC50 [1] [ng/mL]	EC50 [2] [ng/mL]	binding result [5]	Binder	also measured
0.588	0.0999		CQ137抗体蛋白 (人鼠嵌合的抗CD73全长抗体) (antibody, human IgG1, kappa, V domains shown) VH: EVQLQQSGPELVKPGASVKISCKASGYSFTGYYIHWVKQSHVKSLEWIGRINPYNGATTYNQNFKDKASLTVDKSSSTAYMELHSLTSEDSAVYYCARFHYGAPDYWGQGTTLTVSS VL: DILMTQSPSSMYASLGERVTITCKASQDINTYLTWFQQKPGKSPKTLIYRANILVDGVPSRFSGSGSGQDYSLTISSLEFEDMGIYYCLQYDEFPLTFGAGTKLELKR	EC50 (重组猴CD73蛋白): 217 ng/mL; Kd (重组人CD73蛋白): 0.0865 nM; IC50, CHOK1-cynoCD73细胞上CD73酶活抑制 (CellTiter-Glo) [3]: 990 ng/mL; IC50, SK-OV-3细胞上CD73酶活抑制 (CellTiter-Glo) [4]: 371 ng/mL
9.63	4.12		MEDI-9447 (antibody, V domains shown) VH: EVQLLESGGGLVQPGGSLRLSCAASGFTFSSYAYSWVRQAPGKGLEWVSAISGSGGRTYYADSVKGRFTISRDNSKNTLYLQMNSLRAEDTAVYYCARLGYGRVDEWGRGTLVTVSS VL: QSVLTQPPSASGTPGQRVTISCSGSLSNIGRNPVNWYQQLPGTAPKLLIYLDNLRLSGVPDRFSGSKSGTSASLAISGLQSEDEADYYCATWDDSHPGWTFGGGTKLTVLG	
		binds	人源化CQ137单抗(137-2) (antibody, V domains shown, also called hCQ137) VH: QVQLVQSGAEVKKPGASVKVSCKASGYSFTGYYIHWVRQAPGQGLEWMGRINPYNGATTYNQNFKDRVTMTVDKSTSTAYMELRSLRSDDTAVYYCARFHYGAPDYWGQGTLVTVSS VL: DIQMTQSPSSLSASVGDRVTITCKASQDINTYLTWFQQKPGKAPKSLIYRANILVDGVPSRFSGSGSGTDFTLTISSLQPEDFATYYCLQYDEFPLTFGGGTKVEIKR	
		binds	人源化CQ137单抗(137-3) (antibody, V domains shown, also called hCQ137) VH: QVQLVQSGAEVKKPGSSVKVSCKASGYSFTGYYIHWVRQAPGQGLEWMGRINPYNGATTYNQNFKDRVTITVDKSTSTAYMELSSLRSEDTAVYYCARFHYGAPDYWGQGTLVTVSS VL: DIQMTQSPSSLSASVGDRVTITCKASQDINTYLTWYQQKPGKAPKTLIYRANILVDGVPSRFSGSGSGTDFTLTISSLQPEDFATYYCLQYDEFPLTFGGGTKVEIKR	
		binds	人源化CQ137单抗(137-1) (antibody, V domains shown, also called hCQ137) VH: QVQLVQSGAEVKKPGASVKVSCKASGYTFTGYYIHWVRQAPGQGLEWMGRINPYNGATTYNQNFKDRVTMTVDKSTSTAYMELRSLRSDDTAVYYCARFHYGAPDYWGQGTLVTVSS VL: DIQMTQSPSSLSASVGDRVTITCKASQDINTYLTWFQQKPGKAPKTLIYRANILVDGVPSRFSGSGSGQDYTLTISSLQPEDFATYYCLQYDEFPLTFGGGTKVEIKR	
